As usually defined, the IC50 is the midpoint of a concentration-inhibition curve. A higher IC50 goes with weaker potency in that assay.

In this assay the target is Lyn kinase (mouse (endogenous in mouse brain)) (UniProt P25911). The assay is described as follows: pull-down.
Chain of UniProt P25911 (P25911 whole entry): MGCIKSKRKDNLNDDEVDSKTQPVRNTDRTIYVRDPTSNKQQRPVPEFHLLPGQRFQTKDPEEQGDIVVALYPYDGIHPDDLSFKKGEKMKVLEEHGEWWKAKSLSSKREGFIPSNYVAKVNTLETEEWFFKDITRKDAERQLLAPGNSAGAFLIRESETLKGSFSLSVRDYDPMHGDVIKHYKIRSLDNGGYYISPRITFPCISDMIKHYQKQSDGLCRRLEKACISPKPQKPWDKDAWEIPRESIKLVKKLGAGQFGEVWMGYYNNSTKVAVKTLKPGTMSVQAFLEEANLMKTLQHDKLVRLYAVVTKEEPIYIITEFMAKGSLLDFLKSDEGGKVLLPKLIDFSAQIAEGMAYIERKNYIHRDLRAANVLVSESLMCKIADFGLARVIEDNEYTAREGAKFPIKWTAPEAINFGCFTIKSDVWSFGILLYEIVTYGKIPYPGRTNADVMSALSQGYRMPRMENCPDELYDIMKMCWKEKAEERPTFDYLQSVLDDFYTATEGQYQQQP

In the case of “TLR4-Lyn interacting modulator (TLIM) protein (domain or fragment)”, the half-inhibitory concentration (IC50) came to 17.9 nM.

Source of the values: paper PMC11965285.
